The text below walks through data of paper PMC7031210.

In this test the target is T1, RecA (B. subtilis) (UniProt P16971).
T1 sequence: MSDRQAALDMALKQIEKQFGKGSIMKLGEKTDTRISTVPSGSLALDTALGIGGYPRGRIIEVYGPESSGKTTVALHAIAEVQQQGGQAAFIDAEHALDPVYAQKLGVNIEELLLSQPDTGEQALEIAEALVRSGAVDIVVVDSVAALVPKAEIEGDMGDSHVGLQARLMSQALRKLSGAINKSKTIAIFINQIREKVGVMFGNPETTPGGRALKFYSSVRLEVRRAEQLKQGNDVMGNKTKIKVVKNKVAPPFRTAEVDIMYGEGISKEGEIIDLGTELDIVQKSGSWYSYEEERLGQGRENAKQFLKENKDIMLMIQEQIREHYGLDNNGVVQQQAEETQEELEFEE

B1: RarA K51A (enzyme)
chain: MKPLAYRMRPTKIEDIIGQQHLVAEDKIIGRMVQAKHLSSMILYGPPGIGATSIATAIAGSTSIAFRKLNAVINNKKDMEIVAQEAKMSGQVILILDEVHRLDKGKQDFLLPYLENGMIILIGATTANPYHAINPAIRSRTQIFELEPLTPELIKQALERALHDEHRGLGTYSVSIDDQAMEHFAHGCGGDVRSALNALELAVLSTKESADGEIHITLETAEECLQKKSFSHDKDGDAHYDVLSAFQKSIRGSDANAALHYLARLIEAGDLESIARRLLVIAYEDIGLASPQAGPRVLNAIQTAERVGFPEARIPLANAVIELCLSPKSNSAILAIDEALADIRAGKIGDVPKHLKDAHYKGAQELGRGIDYKYPHNYDNGWVEQQYLPDPLKNKQYYKPKQTGKFESALKQVYDKLMKRK
Turning to B1, the maximal rate of ssDNA-dependent ATP hydrolysis of RecA (650 nM) in the presence of RarA K51A (100 nM), coupled spectrophotometric ATPase assay, 5 mM ATP, 30 min at 37°C turned out to be 8.8 min⁻¹.
